Here are results for 4 molecules from US20230322952A1 (BIOMUNEX PHARMACEUTICALS, published 2023).

Assay [1] concerns the target T1, CD19 expressed on the cell surface of tumor cells (UniProt P15391 20-556, limits assumed).
T1 sequence (looked up): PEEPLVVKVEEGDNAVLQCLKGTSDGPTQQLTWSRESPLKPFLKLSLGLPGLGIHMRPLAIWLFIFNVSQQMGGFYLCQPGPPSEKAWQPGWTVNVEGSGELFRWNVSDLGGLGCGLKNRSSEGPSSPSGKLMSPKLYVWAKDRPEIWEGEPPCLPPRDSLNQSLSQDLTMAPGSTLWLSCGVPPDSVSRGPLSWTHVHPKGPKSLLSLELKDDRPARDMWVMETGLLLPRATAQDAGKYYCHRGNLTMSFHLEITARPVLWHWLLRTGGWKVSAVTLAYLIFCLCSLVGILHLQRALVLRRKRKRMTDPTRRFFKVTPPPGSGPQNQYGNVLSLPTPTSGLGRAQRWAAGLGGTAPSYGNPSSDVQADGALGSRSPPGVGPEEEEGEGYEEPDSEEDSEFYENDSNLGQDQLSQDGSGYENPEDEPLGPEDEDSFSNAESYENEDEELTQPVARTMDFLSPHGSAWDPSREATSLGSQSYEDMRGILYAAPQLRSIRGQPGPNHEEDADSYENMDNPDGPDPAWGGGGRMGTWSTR
As to the kind of experiment: cell-based or functional assay.

Assay [2] has as its target T2, Vα7.2 TCR chain expressed on Vα7.2+CD8+ MAIT cells (human).
T2 construct: whole, on cells; also called TCR Vα7.2 chain; Vα7.2+ cells
In words: flow cytometry on Vα7.2+ cells among human CD8+ T cells. Here is the method: The anti-Vα7.2/anti-CD19 Fab-Fab was then tested for binding on Vα7.2+CD8⁺ T cells. The assay was performed by flow cytometry. Human CD8⁺ T cells were isolated from purified peripheral blood mononuclear cells (PBMCs). Briefly, leukapheresis packs coming from healthy donors were centrifuged in ficoll gradients and the PBMCs were collected. CD8⁺ T cells were then isolated with a commercial negative selection kit (Miltenyi Biotec). These cells were then used to determine binding of anti-Vα7.2/anti-CD19 […] on Vα7.2⁺ cells. Cells were washed with PBS and stained with a Fixable Viability Dye (eFluor™ 780, ThermoFisher) and the human Fc Block reagent (BD) (in PBS for 25 min at 4° C.). The cells were then washed with FACS buffer (PBS, 2 mM EDTA, 0.5% BSA) and stained with different concentrations of anti-Vα7.2/anti-CD19 Fab-Fab (Table 3, shown in both nM and μg/ml) for 1 h at 4° C. An irrelevant Fab-Fab was used as a negative control. Following washing (5×), the cells were stained with a secondary goat anti-human antibody conjugated with Phycoerythrin (Jackson Immunoresearch) and an anti-CD8 antibody (Biolegend) for 45 min at 4° C. The cells were then analyzed in the MACSquant flow cytometer.
Depending on the donor, Vα7.2⁺ cells range between 1 to 10% of CD8⁺ T cells.
In general terms: In flow cytometry, cells or beads pass a laser one at a time.

T2 sequence (A0A0B4J238 19-106): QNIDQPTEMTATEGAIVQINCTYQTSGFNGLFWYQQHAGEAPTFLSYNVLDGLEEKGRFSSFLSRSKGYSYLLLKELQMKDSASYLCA

B1: anti-CD19/anti-Vα7.2 Fab-Fab (bispecific antibody)
heavy: QVQLQQSGAELVRPGSSVKISCKASGYAFSSYWMNWVKQRPGQGLEWIGQIWPGDGDTNYNGKFKGKATLTADESSSTAYMQLSSLASEDSAVYFCARRETTTVGRYYYAMDYWGQGTTVTVSSASTKGPSVFPLAPSSKSTSGGTAALGCLVKDYFPEPVTVSWNSGALTSGVHTFPAVLQSSGLYSLSSVVDVPSSSLGTQTYICNVNHKPSNTKVDKRVEPKSCDKTHTAPPAPAPELLGGPAAPPAPAPAGGEVQLQQSGAELVKPGASVKLSCTASGFNIKDTHMHWVKQRPEQGLEWIGRTDPASGDTKYDPKFQGKATITADTSSNTAYLHLSSLTSEDTAVYYCAHYYRDDVNYAMDYWGQGTTVTVSSASTKGPSVFPQAPSSKSTSGGTAALGCLVKDYFPEPVTVSWNSGALTSGVHTFPAVLQSSGLYSLVSVVTVPSSSLGTQTYICNVNHKPSNTKVDKRVEPKSC
light 1: not shown
light 2: DIVMTQSQKFLSTSVGDRVSVTCKARQNVGSNVAWYQQKPGQSPKSLIYSSSFRYSGVPDRFTGSGSGTDFTLTISNVQSEDLAEYFCQQYNTYPYTFGGGTELEIKRTVAAPSVFIFPPSDEQLKSGTASVTCLLNNFYPREAKVQWKVDNALQSGNSQESVTEQDSKDSTYSLVSTLTLSKADYEKHKVYACEVTHQGLSSPVTKSFNRGEC
As to B1, the “percentage of CD19+ A-549 tumor cells lysis” value (from here on “percentage”) in assay [1] was not above 30%.

B2: anti-Vα7.2/anti-CD19 BiXAb (bispecific antibody, human IgG1, kappa, L234A L235A)
heavy: not shown
light 1: not shown
light 2: DIVMTQSQKFLSTSVGDRVSVTCKARQNVGSNVAWYQQKPGQSPKSLIYSSSFRYSGVPDRFTGSGSGTDFTLTISNVQSEDLAEYFCQQYNTYPYTFGGGTELEIKRTVAAPSVFIFPPSDEQLKSGTASVTCLLNNFYPREAKVQWKVDNALQSGNSQESVTEQDSKDSTYSLVSTLTLSKADYEKHKVYACEVTHQGLSSPVTKSFNRGEC
For the molecule B2, the “percentage” value in assay [1] is not above 30%.

B3: anti-Vα7.2/anti-CD19 Fab-Fab (bispecific antibody)
heavy: EVQLQQSGAELVKPGASVKLSCTASGFNIKDTHMHWVKQRPEQGLEWIGRTDPASGDTKYDPKFQGKATITADTSSNTAYLHLSSLTSEDTAVYYCAHYYRDDVNYAMDYWGQGTTVTVSSASTKGPSVFPQAPSSKSTSGGTAALGCLVKDYFPEPVTVSWNSGALTSGVHTFPAVLQSSGLYSLVSVVTVPSSSLGTQTYICNVNHKPSNTKVDKRVEPKSCDKTHTAPPAPAPELLGGPAAPPAPAPAGGQVQLQQSGAELVRPGSSVKISCKASGYAFSSYWMNWVKQRPGQGLEWIGQIWPGDGDTNYNGKFKGKATLTADESSSTAYMQLSSLASEDSAVYFCARRETTTVGRYYYAMDYWGQGTTVTVSSASTKGPSVFPLAPSSKSTSGGTAALGCLVKDYFPEPVTVSWNSGALTSGVHTFPAVLQSSGLYSLSSVVDVPSSSLGTQTYICNVNHKPSNTKVDKRVEPKSC
light 1: not shown
light 2: DIVMTQSQKFLSTSVGDRVSVTCKARQNVGSNVAWYQQKPGQSPKSLIYSSSFRYSGVPDRFTGSGSGTDFTLTISNVQSEDLAEYFCQQYNTYPYTFGGGTELEIKRTVAAPSVFIFPPSDEQLKSGTASVTCLLNNFYPREAKVQWKVDNALQSGNSQESVTEQDSKDSTYSLVSTLTLSKADYEKHKVYACEVTHQGLSSPVTKSFNRGEC
notes: Tandem Fab-Fab without Fc; anti-Vα7.2 Fab (from clone 3C10) at the N-terminus; also called Vα7.2/CD19 Fab-Fab
A word on the EC50: it is the concentration giving half of the maximal effect. Low values mean greater potency, high ones weaker potency. In assay [2], B3 showed an EC50 of 3.49 nM. For the same molecule, the “percentage” value in assay [1] was not above 30%.

B4: anti-CD19/anti-Vα7.2 BiXAb (bispecific antibody, human IgG1, kappa, L234A L235A)
heavy: not shown
light 1: not shown
light 2: DIVMTQSQKFLSTSVGDRVSVTCKARQNVGSNVAWYQQKPGQSPKSLIYSSSFRYSGVPDRFTGSGSGTDFTLTISNVQSEDLAEYFCQQYNTYPYTFGGGTELEIKRTVAAPSVFIFPPSDEQLKSGTASVTCLLNNFYPREAKVQWKVDNALQSGNSQESVTEQDSKDSTYSLVSTLTLSKADYEKHKVYACEVTHQGLSSPVTKSFNRGEC
As to B4, the “percentage” value in assay [1] is not above 30%.
